Data as given in paper PMC5066845.

Experiments:
[1] = molecular target: F-actin polymerised on a streptavidin biosensor from biotinylated and non-biotinylated G-actin (1:4) (rabbit | human) (UniProt P68135); assay: BLI
[2] = molecular target: mouse DNGR-1 extracellular domain (ECD), wild type (mouse); assay: BLI

## mouse DNGR-1 ECD W155A W250A (domain or fragment)
[1]
  Kd: > 100000 nM

## mouse DNGR-1 ECD N140A Y150A (domain or fragment)
[1]
  Kd: 2700 nM

## mouse DNGR-1 ECD K251A (domain or fragment)
[1]
  Kd: > 50000 nM

## mouse DNGR-1 extracellular domain (ECD), wild type (domain or fragment)
[1]
  Kd: 1600 nM
  koff: 0.848 s⁻¹
  kon: 1.5e+06 M⁻¹ s⁻¹

## short F-actin filaments capped and stabilized with gelsolin (from UniProt P60709;P06396) (complex)
[2]
  Kd: 8.7 nM
  koff: 6.4e-05 s⁻¹
  kon: 7600 M⁻¹ s⁻¹
